Non-standard residues stand in square brackets, D forms with d. No end group written: not given here. *: point of attachment. Stearoyl = CCCCCCCCCCCCCCCCCC(=O)*; Nle = CCCC[C@H](N)C(=O)O
Assays:
bovine LPL [1] = target: T1, bovine LPL (Bos taurus, UniProt P11151); experiment: in vitro LPL assay using apoC-II deficient patient sera as substrate; format: biochemical; conditions: for promoting TG hydrolysis in the presence of LPL / efficiency compared with native apoC-II protein: FIG. 6; for efficiency compared with native apoC-II protein: at lower concentrations; for TG hydrolysis: concentrations from 100 pM to 10 μM, FIG. 12; for TG clearance ability compared with Delta4: FIG. 10
T1 sequence (P11151 29-478): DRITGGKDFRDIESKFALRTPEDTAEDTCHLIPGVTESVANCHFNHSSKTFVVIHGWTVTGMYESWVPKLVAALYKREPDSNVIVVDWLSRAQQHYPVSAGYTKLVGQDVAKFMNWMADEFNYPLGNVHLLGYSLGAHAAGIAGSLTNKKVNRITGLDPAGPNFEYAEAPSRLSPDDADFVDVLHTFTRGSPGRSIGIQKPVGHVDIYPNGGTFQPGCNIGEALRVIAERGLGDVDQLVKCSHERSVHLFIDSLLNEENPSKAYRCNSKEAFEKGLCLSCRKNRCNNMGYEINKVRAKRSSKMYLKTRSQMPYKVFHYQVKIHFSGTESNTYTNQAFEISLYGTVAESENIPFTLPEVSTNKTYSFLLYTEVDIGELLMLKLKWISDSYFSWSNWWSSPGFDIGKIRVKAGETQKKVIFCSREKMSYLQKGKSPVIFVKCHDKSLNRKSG
Procedure: (§1) Preparation of LPL: frozen stock of 10 μL of 0.5 mg/mL bovine LPL was used and diluted 1:100 (10 μL+990 μL of PBS).
(§2) Preparation of 20% Intralipid: 2000 mg/dL TG Intralipid was used to prepare 3 mg/dL TG Intralipid by diluting 1.5 μL of the stock with 998.5 μL PBS, or by diluting the stock 1:10 first and then mixing 15 μL of the diluted stock with 985 μL PBS. When apoC-II deficient human serum was used as a substrate, a frozen 10 μL aliquot of 1711 mg/dL (TG) was diluted by adding 990 μL PBS (1:100 dilution).
(§3) Preparation of free fatty acid (NEFA) assay: NEFA reagents were purchased from Wako Diagnostics, Wako Life Sciences, Inc. Reagent A was prepared by mixing Coloring Reagent A with Solvent A (225 μL per well). Reagent B was prepared by mixing Coloring Reagent B with Solvent B (75 μL per well). 5 nmoL oleic acid standard was prepared by diluting 20 μL of 1 mM oleic acid stock (WAKO NEFA standard solution) with 180 μL of 0.2% BSA.
(§4) LPL activity assay: 10 μL of Intralipid, human plasma sample, or mouse plasma sample was added in each well using repeater pipette. 10 μL (or 15 μL in the wells with no LPL control) of PBS and 10 μL of 1% BSA was added in each well using repeater pipette. 10 μL of peptides were added to corresponding wells in vertical triplicates (lowest concentration is on a left, highest is on the right). The plate was spun down at 1000 RPM for 10 seconds to mix and to remove the solutions from the wall of each well. The plate was put on ice and 5 μL of LPL was added using repeater pipette. The plate was spun down again at 1000 RPM for 10 seconds. The plate was covered and put back on ice for an incubation of 30 min. The plate was then moved to 37° C. and incubated for 1 hour.
(§5) Free fatty acids (NEFA) assay: 45 μL of 5 nmoL standard and 0 nmoL control (0.2% BSA) were added to corresponding wells. 225 μL of reagent A was added in each well using the reagent tray and 12-channel pipette. The plate was incubated for 10 min before 75 μL of reagent B was added to each well using the reagent tray and 12-channel pipette. The plate was not covered due to the high volume. The absorbance at 550 nm and 660 nm was measured.

bovine LPL [2] = target: T1, bovine LPL; experiment: in vitro LPL assay using Intralipid as substrate; format: biochemical; conditions: concentrations of between about 1 nM to about 10 μM, FIG. 7
Procedure: as §1, §2, §3
LPL activity assay: 10 μL of Intralipid, human plasma sample, or mouse plasma sample was added in each well using repeater pipette. 10 μL (or 15 μL in the wells with no LPL control) of PBS and 10 μL of 1% BSA was added in each well using repeater pipette. […]
Free fatty acids (NEFA) assay: 45 μL of 5 nmoL standard and 0 nmoL control (0.2% BSA) were added to corresponding wells. […] The absorbance at 550 nm and 660 nm was measured.

bovine LPL [3] = target: T1, bovine LPL; experiment: in vitro LPL assay using hypertriglyceridemia patient sera as substrate; format: biochemical; conditions: sera of patients with high levels of apoC-III protein, FIG. 27
Procedure: as §1, §3, §4, §5

apoC-II knockout mice = experiment: plasma lipids of apoC-II knockout mice after peptide injection; format: in vivo
Procedure: (§6) C57Bl/6 mice (wild-type), apoC-II knockout (apoC-II KO) mice, and apoC-III transgenic mice were used for in vivo study. The C57Bl/6 mice (wild-type) were purchased from Taconic Biosciences Inc. The apoC-II KO mice were created as described in Sakurai et al., J Pharmacol Exp Ther 356:341-353, 2016. The apoC-III transgenic mice were generated by overexpressing human apoC-III in C57Bl/6 mice. See Qu et al., J. Lipid Res. 48:1476-1487, 2007.
Mice were fasted overnight (approximately 12 hours) before the study and 6 hours during the study, the next day. The apoC-II mimetic peptides were synthetically produced and free of biological contamination (not available as FDA approved compounds/treatment). […] W.) administered either subcutaneous injection (S.Q. or S.C.), intraperitoneal injection (I.P.) or intravenous injection (I.V.) (in a sterile, pharmaceutical grade PBS solution at a volume ≤200 μL) as described in Sakurai et al., J Pharmacol Exp Ther 356:341-353, 2016.

C57BL/6 mice (wild-type) = experiment: post-prandial serum TG in C57BL/6 mice after oral gavage with vegetable oil; format: in vivo; conditions: intraperitoneally injected 30 min before gavage, FIG. 20
Procedure: as §6
Mice were fasted overnight (approximately 12 hours) before the study and 6 hours during the study, the next day. The apoC-II mimetic peptides were synthetically produced and free of biological contamination (not available as FDA approved compounds/treatment). Peptides were produced and used in sterile conditions and filtered by 0.2 nm filter before injections in a single dose 1-10 μmol/kg body weight (B. W.) administered either subcutaneous injection (S.Q. or S.C.), intraperitoneal injection (I.P.) or intravenous injection (I.V.) (in a sterile, pharmaceutical grade PBS solution at a volume ≤200 μL) as described in Sakurai et al., J Pharmacol Exp Ther 356:341-353, 2016.
(§7) In some experiments, each animal received 20% Intralipid (FDA approved, Fresenius Kabi, Uppsala, Sweden) in a single dose either by oral gavage (using special sterile single-use non-toxic animal feeding needles) in a dose 10-20 μL/gram body weight (B.W.) (Tuzcu et al. Drug Chem Toxicol 37: 261-267, 2014; Kusminski et al. Nature Medicine 18: 1539-1549, 2012), or by intraperitoneal injection in a single bolus of 0.1-1.0 mL (Mahadero et al. American J Surgery 164: 45-50, 1992), or by intragastric administration of a dietetic commercially-available liquid oil (food grade vegetable, corn, soy or olive oil) in a single dose 10-20 μL/gram body weight. These oils were a source of TG—when absorbed TG tends to be broken down within 3 h (peak in 30 min) (Kritchevsky Nutritional Biochemistry 6:172-178, 1995). Blood samples (20-30 μL) were obtained from the retro-orbital plexus at time points: −1 h, 0 h, 1 h, 3 h, 6 h and 24 h for measurements of lipids. Mice were returned to metabolic cages after the 6 h time point where the food was put back. Once the study was completed (after 24 hours from the fat administration), mice were euthanized and organs collected.

wild-type mice = experiment: serum TG of wild-type mice after Intralipid injection with or without LPL inhibitor Triton WR1339; format: in vivo; conditions: co-injection with Intralipid, 6 h time point
Procedure: as §7
The ability of apolipoprotein mimetic peptides to normalize hypertriglyceridemia in mice treated with an LPL inhibitor, Tyloxapol, in presence of high TG provided by 20% Intralipid, was assessed.
Mice were fasted overnight (approximately 12 hours) before the study and 6 hours during the study, the next day. The apo mimetic peptides were synthetically produced and free of biological contamination (not available as FDA approved compounds/treatment). Peptides were produced and used in sterile conditions and filtered by 0.2 nm filter before injections in a single dose 1-5 μmol/kg B.W. either S.C. or I.P. or I.V. (in a sterile, pharmaceutical grade PBS solution at a volume ≤200 μL). Next, 10% Tyloxapol (Triton WR-1339, T-0307, Sigma-Aldrich) was injected I.V. in a single dose of 5 μL/gram B.W., as described earlier (Zhang Y. L. et al., J Biol Chem. 279: 19362-19374, 2004; Abe C. et al., J. Nutr. 137: 345-350, 2007). […] Finally, each animal received 20% Intralipid (FDA approved, Fresenius Kabi, Uppsala, Sweden) in a single dose either by oral gavage (using special sterile single-use non-toxic animal feeding needles)—in a dose 10-20 μL/gram B.W. (Tuzcu K. et al., Drug Chem Toxicol., 37: 261-267, 2014, Kusminski C. et al., Nature Medicine. 18: 1539-1549, 2012), or by intraperitoneal injection—in a single bolus of 0.1-1.0 mL (Mahadero G. et al., American J Surgery. 164: 45-50, 1992). Blood samples (20-30 μL) were obtained from the retro-orbital plexus at time points: −1 h, 0 h, 1 h, 3 h, 6 h and 24 h for measurements of lipids. Mice were returned to metabolic cages after the 6 h time point where the food was put back. Once the study was completed (after 24 hours from the Intralipid administration), mice were euthanized and organs collected.

[4] = target: T2, LPL inhibited by apoC-III (Bos taurus, UniProt P11151); experiment: LPL activation assay with Intralipid as substrate and recombinant apoC-III as an inhibitor; format: biochemical; conditions: Intralipid substrate, FIG. 31
T2 sequence (P11151 29-478): T1 sequence (P11151 29-478)
Procedure: as §4, §5
(§8) LPL assay was performed using Intralipid, high TG human plasma (1:50 dilution), or apoC-III transgenic mouse plasma (1:50 dilution). When Intralipid was used as a substrate, 25 or 50 μM recombinant ApoC-III was added as an inhibitor. When the high TG human plasma was used as a substrate, 25 or 50 μM recombinant ApoC-III was added as an inhibitor with or without pre-incubation at 37° C. for 1 hour. An apoC-II mimetic peptide was added at various concentrations.

[5] = target: T2, LPL inhibited by apoC-III; experiment: LPL activation assay with high TG human plasma as substrate and recombinant apoC-III as an inhibitor; format: biochemical; conditions: 50 μM apoC-III added; from about 3.2 μM without; plasma 1:50 dilution
Procedure: as §4, §5, §8

[6] = target: T2, LPL inhibited by apoC-III; experiment: LPL assay using human apoC-II deficient plasma as substrate with recombinant apoC-III; format: biochemical; conditions: 25 μM apoC-III added; from about 1.5 μM without
Procedure: as §4, §5, §8

Substance	promoting TG hydrolysis in the presence of LPL (bovine LPL [1])	efficiency compared with native apoC-II protein (bovine LPL [1])	TG hydrolysis (bovine LPL [1])	efficiency compared with native apoC-II protein (bovine LPL [2])	serum TG increase after vegetable oil gavage (C57BL/6 mice (wild-type))	TG clearance ability compared with Delta4 (bovine LPL [1])	further results
DYLKAVFEKLRDLYSKFTAAnLSTYTGIFTDQVLSVLKGEE (DYLKAVFEKLRDLYSKFTAA[Nle]STYTGIFTDQVLSVLKGEE) [Delta4]	capable of promoting TG hydrolysis in the presence of LPL	worked more efficiently than the native apoC-II protein	promoted TG hydrolysis in a dose-dependent manner	worked more efficiently than the native apoC-II protein	the TG increase was significantly reduced	–	LPL activity (bovine LPL [3]): increased the LPL activity; plasma TG (apoC-II knockout mice; intraperitoneal injection): marked reduction of plasma TG; total cholesterol level (apoC-II knockout mice; intraperitoneal injection): decrease in total cholesterol level; time of maximum decrease of plasma TG (apoC-II knockout mice; intraperitoneal injection, FIG. 18): about 3 hours; plasma TG (apoC-II knockout mice; subcutaneous injection): rapid and marked reduction of plasma TG; total cholesterol level (apoC-II knockout mice; subcutaneous injection): decrease in total cholesterol level
DYLKAVFEKLRDLYSKFTPAMSTYTGIFTDQVLSVLKGEE [Delta4b]	–	–	promoted TG hydrolysis in a dose-dependent manner	–	the TG increase was significantly reduced	enhanced the TG clearance ability of the exemplary apoC-II mimetic peptide Delta4	–
DYLKAVFEKLRDLYSKKC18TPAMSTYTGIFTDQVLSVLKGEE (DYLKAVFEKLRDLYSKK(Stearoyl)TPAMSTYTGIFTDQVLSVLKGEE) [Delta4b-3]	–	–	promoted TG hydrolysis in a dose-dependent manner	–	the TG increase was significantly reduced	enhanced the TG clearance ability of the exemplary apoC-II mimetic peptide Delta4	–
DYLKEVFEKLRDLYSKFTAAnLSTYTGIFTDQVLSVLKGEE (DYLKEVFEKLRDLYSKFTAA[Nle]STYTGIFTDQVLSVLKGEE) [Delta5]	capable of promoting TG hydrolysis in the presence of LPL	worked more efficiently than the native apoC-II protein	–	worked more efficiently than the native apoC-II protein	–	–	–
Tyloxapol [Triton, reference compound]	–	–	–	–	–	–	increase of serum TG level (wild-type mice): more than 1000 fold
apoC-III recombinant protein: recombinant ApoC-III added as an inhibitor in the LPL assay	–	–	–	–	–	–	effect on production of free fatty acid (NEFA) [4]: inhibited the production of free fatty acid (NEFA); free fatty acid (NEFA) production [5]: about 1.7 μM; free fatty acid (NEFA) production [6]: about 0.8 μM
